Experimental data as given in the DeepSol protein solubility set.

Test: soluble on expression in E. coli; label from the status in PepcDB or PDB records

Soluble on expression in E. coli, not soluble:
MGSDKIHHHHHHLAKIKTKFVCQSCGTESPKWMGRCSGCGEWNTMVEEVVEEKKARRGSAFVHTTTKQLKPERLSNILSQEESRVFTGSGEFDRVLGGGIVPGSMVLVGGDPGIGKSTILLQTSARLAARGEKVLYISGEESLKQTKLRAERLGLPTQDLFVLSETDMNMIERVVDEENPAFLIIDSIQTVYIDEIQSAPGSVTQVRECTAMLMKIAKSRGIAIFIVGHVTKQGSIAGPRLLEHMVDAVLYFEGERHHTFRILRAVKNRFGSTNEIGIFEMRESGLEEVLNPSEIFLEERTSGVSGSTIVASMEGTRTVLVELQALISPTSFGNPRRMATGIDQNKVALLMAVLEKRSGLLLQTQDAYLKAAGGVKLDEPAIDLAICVAVASSFRDKPTRPTDVVIGEVGLTGEVRRVSRIEQRVAEAAKLGFTRAIIPKNNLGGWTYPPGITVIGVESVDEALRETIPF, MGSDKIHHHHHHLAKNNPISIPVSELRLGLTVKLPLSWTEHPFLINRIELKEQAQIEMIRGLKVQHVLVLAGAELLDEDVPKEEVPIEDDGFDEDMPERDVKREARVAIRKSQKRFLDCVNDSRSLVGKLGSDPEGAYRLSATLVEQMLEHLFEQEAAYLALVSAGEQGASVTQHGISVAVLSLMIAKSMDMPKKDMRDIALGALLHDIGKLRVPDNIRRKRGPLTTQEINFMNQHPNYGHEMLSRSGLFPEEVLHIIRHHHEFIDGTGFPGGLNGKKIPRTTQIVTLANDFEDQMTSHSIASPQVALGYLFKHRVGKHDEALIATLVKVLRHLSARYSGASHRRFFGKGDDDHPGSQAASGVGLQRRRRRPRPQNLDE, MGSDKIHHHHHHLEELDQMRAVFGTRPWREPTDTPAVISVSNFKGGVGKSTVALHLAQHFAIHGYRVLFIDCDSQASSTMMFGYRPDVDLTEDDTLYGHFHNPELLGVRSIIRKTHFFGLDLIPANLKLYNLEYEIAGYLAQNQNFDIIDLIAEAIDTVVDDYDVVVMDPPPALGMVSMAVLQAANAMVIPVPPSVIDFASTVSFIDMARTTMKQLEQIAGRVKPAYNFIRLVGSRVDESKSMHREILSMMRQVFGGSMATSVLKTSAEIDNASSRMKTVFELDRPVTSHEVHNRCMKHLSDVCREIETDVLRTWASRAGEAV, MGSDKIHHHHHHLEQQAIVANNLANASTTGFRAQLATFRAVPMSFGDGSSINDNTTRTFVLSSTPGADYTPGPIQQTGNPLDVAIQGPGWLAVQTADGGEAYTRAGNLHIDENGQLVNATNQVVLGNGGPVSVPPGAEITIGKDGTVSALTPGDPPTAVVTVDQLKLVNPDPQTMTRGDDGLFRTGDGNPADADPTVTLAPASLEGSNVNPVSAMVSMITNARQFQMQTKLLESADKNDQSANQLLSFS, MGSDKIHHHHHHLFTSLVKQAEEMGLLDLSSVAIDATKVEAYEKSVPRKNIIQNGNAADWGIKSDTNGNPIKWFGYKLHIGTDVRSGLPIAMKVTPANYSDSSVALELVEKCCANTQSKIVYFLMDAGYDHREIYSVIRDKYHAQAIIALNKRGAKQPPEGFDWDGTPICSARYRMVYWGSYQGVNKFRCPHIMGKCDCPFGSAWCSDSNYGMVVKTKVKDDPRLFSSPHRGSANWQKQYNLRTYSERCFSRFKENLGLEDGLNVRKITKVETHAYLCAITMIAAVIAINQDSSTRSSAA, MGSDKIHHHHHHLGFILDKSGLIPPSIDFPELIKAGREQLHRETDYEQEARHLDMFFKLMAGDKCFEVPRINQEFTTDKTLAMEFKEGVTIDQIVSANYNVKNKAVLNLIDLFFRELFEFNLIQSDPNYANFLFDEKNGKIILLDFGATIPVSSDTLAKFKALFNETLGQNKKSVENAMYQLGILDKGLPSHILNELTDIYWDSTEPIRKNKMFDFGNSNILERMQELSSEIIVHRKKIKIPPFDILSIQRKIGGIFLLARRFEAKINLNKIFEK, MGSDKIHHHHHHLILNWPQSDSEHLMVSSEQMQNIEKEMFSMGMPVEALMEKVGIGISSWILDRHGLIENGAIVLVGPGHNGGDGLVVARELYMAGVDISIWCPFPLKKQLTQKHFHYAMQIGIENLERKPDSNSDLLWIEALFGLGQSRIISDEIIRLLNSKKTFSPEKLISIDVPAGLDSDNGNIVSNTSCKASSSLTLGLFKSGLIQDSAIDYVGNLERVDIGIPDKILAGFPETQPLRISFSDLSTFVWPMLSKSKSKYQRGRVLVIAGSEKYRGAASLALNGALASGVGSVSAFLPNSVSSALWITHPEVLLLGDLTAFQDGSSDFSKVLNEVDLNRFDSILLGPGLGIADEKDCFGSDLQDFKGLLVLDADAINRLSITSKGWEWLNDREGPTWLTPHLEEFKRLFPLIDCSNPLKAGIEAAKTCSSSVLLKCAHSVISDPEGKTWQIGQVNSSVARTGLGDVLAGFVSGMGASGLASDKKLDTSLLAASALMHAYAGAFSIKGSTASTICTFLGELIKKEST, MGSDKIHHHHHHLIPKIIHYCWFGNSELPDIVKDCISSWKKYCPEYEIKRWDESNYDVSKNAYTRAAYKNKKWAFLTDYVRLDVLYNEGGVYMDTDVKLIRSLDPLIDKGPFMSFEKRGRVNTGVGFACEAGNPIVKENKDYYENNLFVDENGNFEPEICVKITTKILIKHGLNYTENVVQKVDGLIVYSSDYFSPKKLGTEKITLTSNTYGIHLFASSWYKGSKIYKKMKYHLIPLKEFIKYKILSKKLYE, MGSDKIHHHHHHLKKITNFRSLGGYQNAHGQMVKDGLIFRSGQLFELEDDQSHYLGQTLGIKHIVDMRSDDERTEFPDTVWEGADYAVLDILKDATANNASLGRMITEKGNVHENMLATYEQLALSDSAKTGYRQFIQGLLRPNEPTIFHCFAGKDRTGVGAALILKILDVSEQDIMADYLQTNAERTVANEEILAGLKERGFTDQQLKSIGEALKVDADYLRRYFQVIDQQFGPFQQYLREGLKLSAGEIAQFRDLYLQK, MGSDKIHHHHHHLKVIAIGDNVVDLYPADKQMYLGGHAANTAVFAAELGLQAAYIGTFGNDARGDFARRMLVERGVDVQHSLQYVGRNAFTTITGKDGARRKVVGEPPQELRLDPEDIAYINSFDLVYLNSESHADAFLQAITARKVYDFSILDDDKLFKKIAPQIDLAYLSGKARSDDDVEALMRRVAAAGCDRIVCSRGLRGSAALVDGMMSWQQALGVKAVDSLGAGDAYITSFAATLYSSSKPTLDAKVSESLSHAAKFASAQVLLPGSFGHGAPLIS, MGSDKIHHHHHHLNQPLTPQPIKTMTDKRQAILDTALALFVSQGFHGTSTASIAKQAGVATGTLFHHFPSKEALMESLFLTIKQQFADTLLLNTHKGSDLKLNALQLWQSAIDWSLDNPVKQLFFQQYSMSPMIAAKVRDQAMNSILGFISELIKQGQMEGLIAHYPLELMLENCHGQYLAATRFFIDNPHLGTNTRYRDASFELFWKAMQAD, MGSDKIHHHHHHLRILNTAATGVRAQQTALDVLGNNMSNVNTPGYKAQRVNFAEALAAEMRPAEREFNGQPVGERIDVGAGVIYPTIDTDYRQGIIRETENPFDLAIDGEGFFPVRTANGESRYTRVGNFELDSQGKLVNSDGYILEVKIPADAMDLYVDETGNITGFIDDEERVLGRVVVNDPEGEGYPVGPIDMDELGRPLDWNGDILPTAFAVPEGAEDVQISTEGILSATIDGSRQTLGQINIITFANPEGLVRDGDNLYFAPDAAGVTGDELVGTPGSQVEERTLGKLKTQSLEQSNVNLASAMTEMIQVQRAYQLNARMITNGDQMWSMANSLRR, MGSDKIHHHHHHLSGCVSLPPPAPIVHQPMSARAALPAPPPGNGAVYQDANQYHSLFIDRRARQIGDTLVILLTERTNASKRSNSSANKNGDVSFGIPPIVFGVPITKKIDLGASSSNDFAGKGEAASANNFSGTITVTVVDVLPNSYLVVSGEKQLAMTQGSEYIRFSGVVRPETVISNTVSSIQVADARIEYKANGYIDEAQTMGWLSRFFLTVAPF, MGSDKIHHHHHHLVGISHDTDQRILEQAMNMIRENGEDQLSLRKLARAIGLTTGAFYKHFATKDALLRAVTQLLSQREEAEMAQVLGQITDPEEKLLVMAAEILERFEADPHLMHFLFFNPAARDVLKVEPGQFGFYDQVIQLIKDVLRKRGITIDPQILFIQLWSFIQGYGLLIDSGITSYDPNLVRKTLKDLLEVSND, MGSDKIHHHHHHLYRIFRPIARFIVWVLNGHLHVHHKERLPEGTYILVAPHRNWWEPILFALAASPTEFMFMTKQELFKNPVLRWILNNAHAFPVNREHPSPSVIKIPVRGLKSEGLSLIMFPSGTRHSASLKSGALVIARMSGRPLLPAVYQGPLTFKGVLQRKGIEINFGNPIVIDRKTKLTPETEAAYNQQLEDAWKQIDQELDPDFHYEAK, MGSDKIHHHHHHMAAEIIAVTQQKGGVGKSTIAMHLGAAFHEKGRRVLVIDADGQNTLVHWSSSSADSESGIPFPVVNLAEAGSQIHREIKKFINDYDIIIVDCPPSITEKVSGVVLLAATIAVIPTSSSPADYWSSVGLVKLIQQAQVMNEDLRAVFLLNKTEEKRMLTRELKRALEELGFPLLKTQIPTREAYKQAMALGQTVLQMNDRGAKLAAAEIRACADEIVAMLP, MGSDKIHHHHHHMAAKGKKKNFVLDTNVMLHDYECIEKFEENDIYIPIVSLEELDKFKKGSEQINFNARAFVRRLDEISDQDLFAKGASLGEGLGRIFVKINGQYHTKVKEAFGENKADHRILSIAMTLADEQPNIKTILVTKDVNLRMKARSLGMLVEDYINDKVTRVDLFENAEPEYEGVDGDLIDRIYASKDGIDIDEWELGSKIDPNDCFVMKSERNSVLARYNPFTGKIVRVEKGHYFGIQPRNAEQTFAMHILTDPNVKLIGLTGKAGTGKTLLALAAALSQEQSYKQILLARPIVSLANKDLGFLPGDEKAKVAPYMQPLFDNLNVIKGQLAQNSSELRRLDEMQKTEKLVIEALAYIRGRSVSETIFIVDEAQNLTPHEIKTIITRAGEGSKLIFTGDIEQIDSPYLDAQSNGLAYMIERMKGQPLFAHVNLIKGERSELSELASDLL, MGSDKIHHHHHHMAATSDYDVIVVGGGHNGLTCAGYLARAGKRVLVLERRPIVGGAVCTEEVIPGYKIDVGSSAHIMIHLTPIVRDLELERHGLEYIDMDPYAFYPLPDGSGAIYFYRDVERTCQSIATVSPRDAEAYRRFLDFWTPLNEAVFDVFLNPPSVTRLFGKVASSIPRLPKAEQKVLEVTRRLFTSYAQLIEETFESEAMRAAMTWLAAQSGPPPDEIGAGDFFGWHAMLHYSGAKHPRGGSGMLTQAMARSLKAMGGEVILDAPVRRILVQNGRVQAWKRQTVSAIRPRLLFPTLTC, MGSDKIHHHHHHMADFSNQIVTIKKGLDLPIAGEPRQVIELGAKPSQVAVLGEEFVGLKPTMLVEEGDWVQKGQALFEDKKTPGVLFTAPASGQVVAINRGERRILQSVVIRCDDGENRDGQISFEIHQDIAALARSTVQAQLVKSGLWTALRTRPFSRVPALDSTPAGIFVTAIDTNPLAADPRLIIAEQTEAFKAGLLVLSRLTEGKVYLCQDKGEAIVKEALPQLEVRRFDGVHPAGLVGTHIHFTLPVSLERQVWHIGYQDVIAYGKLFQTGELYTDRIVALGGPSVLNPRLLRTQLGAELSPLVSDDIKPGQNRVVSGSVLSGHTAVGVHDFLGRFHNQVSVLSEDAQHHVLSWVRGGSDKFSITRAVTSRLFGATKLFEFTTHQGGSARAMMAFGQLDRVMPLDILPTLLVRDLVVRDTDEAQALGALELDEEDLALCTFVCPGKYDFGKELRACLDVIEREG
